Measured values reported in the supplement of paper PMC10567573.

B1: GLTSCR2 (parent)
chain: YNPSFEDHQTLLSAAHEVELQRQK
B2: ZNF193 (parent)
chain: QKRYHCKECGKVFSQSAGLIQHQR

Variants of: B1
Test: protein stability index of a GFP-peptide fusion (GPS, HEK-293T) (PSI 1-6); higher = more stable
Details: c terminus: a fixed tail appended
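Note: lentivirally expressed fusions sorted by FACS into six bins by GFP to DsRed ratio, PSI derived from sequencing read proportions per bin multiplied by bin number.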

Protein stability index: each site, then its substitutions
L12: C 4.02, R 4.44, V 4.15, S 4.79, N 4.54, D 5.35, M 4.29, H 4.61, W 1.58, F 2.35, Y 3.63, K 4.45, G 4.23, Q 4.2, A 4.41, I 3.86, P 5.16, T 4.62, E 5.25
H8: S 4.2, P 3.86, G 4.05, Y 1.54, L 2.22, N 4.29, T 3.11, D 4.81, A 3.79, C 2.67, V 2.33, R 3.66, Q 3.84, M 2.72, W 1.88, F 1.99, E 4.4, I 2.53, K 3.62
L11: P 4.92, R 4.19, D 5.01, Y 3.25, I 2.96, V 3.98, N 4.96, Q 4.88, F 2.81, S 4.95, A 4.7, G 4.58, T 5.29, K 4.71, W 2.38, H 4.57, E 5.13, C 4.26, M 4.19
T10: C 3.19, I 3.05, S 3.94, A 3.39, N 4.01, F 2.61, V 3.53, G 3.87, L 2.71, M 2.87, P 3.7, E 4.44, Y 3.03, D 4.32, H 3.37, Q 3.47, W 2.65, R 2.59, K 2.35
V18: D 4.13, I 3.67, G 3.79, Q 3.76, R 3.43, M 3.65, S 3.65, W 2.54, F 3.1, C 3.65, P 4.41, K 4.14, E 4.44, L 3.69, N 3.8, A 4, T 4.24, Y 3.49, H 3.28
R22: M 3.4, G 3.86, E 4.69, K 4.13, D 4.84, S 3.9, Q 4.24, L 3.18, W 2.71, H 3.99, A 4.18, T 3.96, N 4.32, I 2.91, C 3.35, Y 3.16, P 4.21, V 3.7, F 3.43
Q23: F 2.56, N 3.45, T 3.68, I 3.23, P 3.96, R 3.5, Y 3.19, L 3.21, C 3.06, H 3.33, A 3.75, E 4.13, W 2.95, S 3.63, K 3.75, V 3.57, G 4.12, D 4.23, M 3.4
A14: N 4.04, I 3.02, Q 3.86, F 2.53, H 3.64, C 2.53, T 4.04, Y 2.65, P 4.08, K 3.92, V 3.41, M 3.62, R 3.48, S 4.2, E 4.63, W 2.51, D 4.29, L 3.09, G 3.52
H16: M 3.63, V 2.97, C 3.28, K 3.51, D 4.43, N 3.92, L 3.22, W 2.51, F 2.91, E 4.38, Q 3.48, Y 3.34, A 3.64, G 4.16, S 4.45, P 4.19, R 3.2, I 2.53, T 3.93
A15: H 3.56, K 3.96, P 3.61, F 2.47, I 2.29, M 2.93, W 2.3, T 3.75, L 2, Y 3.48, R 3.56, V 2.53, D 4.54, C 3.3, N 3.85, E 4.53, S 4.07, G 4.28, Q 3.82
D7: Y 3.52, T 3.55, R 3.7, W 1.92, V 2.92, S 4.11
L20: V 3.63, H 4.51, Q 3.87, W 3.19, E 4.54, R 3.89, C 3.99, G 4.16, D 4.29, K 4.44, Y 3.74, F 3.57, P 4.46, M 3.67, S 4.26, T 4.39, I 3.71, A 4.04, N 4.09
S13: W 1.51, Y 2.75, E 3.2, A 3.21, K 2.58, V 3.2, L 2.9, I 2.45, G 3.29, N 3.66, Q 3.66, M 3.08, T 4.17, P 4.2, C 3.25, D 3.88, H 3.47, R 2.56, F 2.66
Q21: H 2.96, D 4.16, T 3.44, K 3.17, P 4.07, N 3.71, Y 3.18, C 3.61, G 3.26, E 3.42, L 2.96, M 3.06, F 3.06, I 3.26, S 3.96, R 3.95, A 3.34, W 3.06, V 3.28
E17: H 2.78, V 2.83, W 2.73, L 2.96, C 2.88, I 3.03, R 3.4, Q 2.94, K 3.43, S 3.43, M 3.29, P 3.33, A 3.15, Y 2.51, G 2.94, F 2.45, D 3.85, N 3.33, T 3.36
E19: N 3.36, C 3.33, S 3.39, R 2.69, D 4.05, H 3.39, M 3.01, A 2.63, F 2.49, I 2.85, T 3.5, K 3.25, L 2.28, V 2.67, W 2.75, P 3.86, Y 2.42, G 3.8, Q 3.36
Q9: K 3.12, H 3.68, L 3.11, Y 3.36, A 3.79, C 3.06, D 4.5, E 4.45, F 2.45, R 3.13, N 4.1, V 3.24, P 4.08, I 2.6, G 4.42, S 4.09, M 2.72, W 2.2, T 3.56
K24: F 2.66, R 3.21, L 3.48, Y 3.18, C 3.22, M 3.28, W 2.79, I 3.33, S 3.97, D 4.28, Q 3.81, H 3.23, A 3.39, T 3.98, E 4.36, G 3.78, P 3.33, N 3.96, V 3.31

Variants of: B2
Test: as above
Details: c terminus: a fixed tail appended

Protein stability index of substitutions, site by site:
Q1: E 3.7, F 2.45, A 2.67, C 2.42, D 3.71
